In the nanobody polyreactivity screen of Harvey et al. (2022):

Assay: yeast display, Sf9 membrane polyspecificity reagent, FACS + sequencing; frameworks hold sequencing errors
Outline: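 Genes from sorted yeast were amplified by colony PCR, read by MiSeq 2 × 250 sequencing and filtered on CDR length. These cells carried a synthetic nanobody library in Saccharomyces cerevisiae BJ5465 and were sorted by FACS into low and high (top ~1%) gates on anti-HA and streptavidin fluorescence. Polyreactivity is labelled according to the gate of origin.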

Sequence	polyreactivity (PSR sort gate)
QVHLVESGGGLVQAGGSLRLSCAASGITFAWYAMGRYRQAPGKERELVAAITRGGGSTYYADSVKGRFTISRDNAKNTGYLQMNSLKPEDTAVYYCAARPYSYPYGYWGQGTQVTVSS	low polyreactivity
QVQLVESGGRLVQAGGSLRLSCAASGRIFRVYAMGWYRQAPGKERELVAAISSRGGRTYYADSVKGRFTISRDNAKNTVYLQMNSLKPEDTAVYFCAADGRSSSRTTSRYDYWGQGTQVTVSS	high polyreactivity
QVQLVESGGGLVQAGGSLRLSCAASGSILGGNAMGWYRKAPGKERELVAAITFSGGGTYYADSVKGRFTISRDNAKNTVYLHMNSLKPEDTAVYYCAADKDGYTYEFDYWGQGTQGTVSS	low polyreactivity
QVQLVESGGGLVQAGGSLRLSCAASGRTSSYTMGWYRQAPGKERELVAAITRRGVSTYYADSLKGRFTISRDNAKNTVYFQMNSLKAEDTAVYYCAVGPRASFGYGYWGQGTQVTVSS	high polyreactivity
QVQLVESGGGLVQAGGSLRLSCAASGSIFIPYAMGWYRQAPGKERELVAAISRRGGSTYYADSVKGRFTISRDNAKNTVYLQMNSLKPEDTAVYYCNKDVNAYGYFEYYYWGQGTQVTVSS	low polyreactivity
QVQLQDSGGGLVQAGGSLRQSYAASGYIFPSLAMGWYRQAPGKEREFVAAIGRGSTNNYADSVKGRFTISRDNAKNTAYQQMNSLKPEDTAVYYCAAAASPLTRHLYWGQGTQVTVSS	low polyreactivity
QVQLVESGGGLVQAGGSLRLSCAASGSTSQSNAMGRYRQAPGKERELVAAISWSGTSTYYADSVKGRFTISRDNAKNTVYLQMNSLKPEDTAVYYCAADYIFDYDYWGQGTQVTVSS	low polyreactivity
QVQLEESGGGLVQAGGSLRLSCAASGSTFVGNAMGWYRQAPGKERELVAAISFSGGSTYYADSVKGRFTISRDNAKNTVYLQMNSLKPEDTAVYYCAKKTRYRSRGMNYWGQGTQVTVSS	high polyreactivity
QDQLVESGGGLVQAGGSLRLSCAASGRIFRTYAMGWYRQAPRQERELVAAIRSGGSTKYADSVKGRFTISRDNAKNTVYLQMKSLKPEDTAVYYCAAAVLGRYSAGDGYWGQGTQVTVSS	low polyreactivity
QDQLVESGGGLVQAGGSHRLSSAASGSILGAYAMGWYRQPPVKERELVAAISRNGGSTYYADSVKGRFTISRDNAKNTVYLQMNRLKPEDTAVYYCAAYYYDNEYDYWGQGTQVTVSS	high polyreactivity
QDQLVESGGGLVQAGASLRLSCAASGSIICLYAMGWYRQAPGKERELVARITRSGGRTYYADSVKGRFTISRDNAKNTVYLQTNSLKPEDTAVYYCNAYGPNIYSSRYDYWGQGTQVSVSS	low polyreactivity
QVQLVESGGGLVHAGGSLRLSCAASGSTLSYAMGWYRQAPGKERELVAAISRSGGSTYYADSVKGRFTISRDNAKNTVYLQMNSLKPEDTAVYYCAADPYPSYANGGYYWGQGTQVTVSS	high polyreactivity
QVQLVESGGGLDQAGGRLPLTWAASGFTFWKYAMGLYRQAPGKERELVAANSVSGGRTYYADSVKGRFTISRDNAKNTVSLQMNRLKPEDTAVYFCNATPWRPYVGGEYWGQGTQVTVSS	high polyreactivity
QVQLVDSGGGLVQAGGSLRLSCAASGSTFYYYAMGWYRQAPGKERELVAAITYSGGSTTYADSVKGRFTFSRDNAKNTVYLQMNSLKPEDTAVYYCAAYVYRYHRVAYEYWGQGTQVTVSS	high polyreactivity
QVQLVESGGGLVQAGGSLRLSCAASGFIFPSYAMGWYRQAPGKERELVAAISWTGGTYYADSEKGRFTISRDNAKNTVYFQMNSRKPEDTAVYYCAVRYKRKGSGYRTNAYDYWGQGTQVTVSS	high polyreactivity
QVQLVESGGGLVQAGGRLRLSCAASGSIFRFYAMGWYRQAPGKERELVASISSGGSTYYADSVKGRFTISRDNAKNTVYLKLNSLKAEDTAVYYCAHGFAQYGVDLDPGDYDYWGQGTQVTVSS	low polyreactivity

Sequence	polyreactivity (PSR sort gate)
QVQLVESGGGLVQAGGSLRLSCAASGSTFGNYAMGWYRQATGKERELVAASRWSGTRTFYADSVKGRFTISRDNAKNTVYLQMNSLKPEDTAVYYCNAVYSQPGYKGGYSWGQGTQVTVSS	high polyreactivity
QVQLVESGGGLVQAGGSLRLSCAASGIIFDTYAMGWYRQAPGKERELVAAISRSGDTTYYADSVKGRFTISRDNAKNTVFLQMNSLKPEDTAVYYCNARQSRWDKYDYWGQGTQVTVSS	high polyreactivity
QVQLVESGGGLVQAGGSLRLSCAASGITFKFYAMGWYRQAPGKERELVAAIDSRGGSTYYADSVKGRFTISRDNAKNTVYLQMNSLKPEDTSVYYCNKVGRRKLDYWGQGTQVTVSS	high polyreactivity
QVQMQESGGGLVQAGGSLRLSCAASCTISQEDWMGWYRQAPGKEREFVAAIGLGSNTNYADSLKGRFTISRDNAKNTVYLQMNSLKPEDTAVYYCAVSVWQYSDHVFRGQGTQVTVSS	low polyreactivity
QVQLVESGGGLVQAGGSLRLSCAASGRTFHYYAMGWYRQAPGKERELVASITYNGGDTYYADSVKGRFTISRDNAKNTVYLQMNSLKPEDTAVYYCAAEYYGHRYDYWGQGTQVTVSS	low polyreactivity
QVQLVESGGGLVQAGGSLRLICAASGRTIYIYTMGWYRQAPGKERELVASISWNGGRTYYADSVKGRFTISRDNAKNTVYLQMNSLKPEDTAVYYCAAQYGVYDYLGQGTQVTVSS	low polyreactivity
QVQLVESGGGLVQAGGSLSLSCAASGSIFAAYTMGWYRQAPGQDRELVAAITSGGTYADSVKGRFTISRDNAKYSVYLQKNSLQPEVTAVYYCYAGNNVVVDYDYWGQGTQVTVSS	low polyreactivity
QVQIVESGGGLVQAGGSLRLSCAASGRILWFYAMGWYRHAPGKERELVAAITDSGGSTYYADSVKGRFTISRDNAKNPVYLQMNSLKPEDTAVYYCAADGDRYISGGGLAHYDYWGQGTQVNVSS	low polyreactivity
QVQLVESGGGLVQAGGSLRLSCAASGSTFRQNALGWYRQAPGKERELVAAITYRVASTYYADSVKGRFTISRDNAKNTVYLQMNSLKPEDTAVYYCAAYKRRSNGRYWTYDYWGQGTQVTVSS	high polyreactivity
QVQLVESGGGLVQAGGSLRLSCAASGSIFGGYAMGWYRQAPGKERELVATISYSGDSTYYADSVKGRFTISRDHAKNTVYLQMNSLKPEDTAVDYCATESNGSPYKGDYWGQGTQVTVSS	low polyreactivity
QVQLVESGGGLVQAGGSLRLSCAASGSTFPYYAMGWYRQAPGKERELVAAITSGGSTNYADSVKGRFTISRDNAKNTVYLQMNSLKPEDTAVYYCNAEWRRRYTYLRRVYYGFDYWGQGTQVTVSS	high polyreactivity
QDQLVESGGGLVQAGGSLRLSCAASGRIFSIYAMGWYRQAPGKERELVAAITRGGRTIYADSVKGRFTISRDNAKNTVYLQMNSLKPEDTAVYYCAARRIDGVVKPYDYWGQGTQVTVSS	low polyreactivity
QVQLVESGVGLVQAGGSLRLSCAASGRIFNDNAMGWYSQAPGKERELVAAISTGGSTNYADSVKWRFTISRDNAKNTVYLQMNSLKPEDTEVYYCAADHPVTYETSKFDYWGQGTQVTVSS	low polyreactivity
QVQLVESGGGLVQAGGSLRLSCAASGSTFLDYDMGWYRQAPGKERELVATINSVGSTYYADSVKGRFTISRDNAKNTVYLQMKSLKPEDTAVYYCAASQEPGWYPDVWWEYDYWGQGTQVTVSS	low polyreactivity
QGQLVESGGGLVQAGGSLRLSSAASGNTFYGYAMGWYRQSPGKERELVASITLSGDSTYYADSVKGRFTISRDNAKNTVYLQMNSLKPEDTAVYYWAGVYTYPLGYYHYTYDYWGQGTQVTVSS	low polyreactivity
QVQLVESGGGLFQAGGSLRLSCAASGRIFVFYTMGWYRQAPGKERELVASINSGGSTYYADSVKGRFTISRDNAKNTVYLQMNSLKPEDTAVYYCAASRTRRGVRQFDYWGQGTQVTVSS	high polyreactivity
